Data from patent US20070174009A1, “Methods and systems for analyzing a network of biological functions” (National Institute Of Advanced Industrial Science And …, priority 2004, published 2007).

Legend:
[1] = tested on: human neuroblastoma SHSY5Y; experiment: Marker enzyme expression (ChAT, TH) in the presence of each ligand of the receptor tyrosine kinase; assay type: cell-based; conditions: SHSY5Y cells, ChAT vs TH, beta-actin control, FIG. 19
Excerpt: Cholinergic neuron-like cells were identified by using anti-choline acetyltransferase antibody, and dopaminergic neuron-like cells were identified by using anti-tyrosine hydroxylase antibody, both of which are available from Clontech.
Next, the marker enzyme expression in the presence of each ligand of the receptor tyrosine kinase has been studied.

[2] = tested on: human neuroblastoma SHSY5Y; experiment: Differentiation (neuritegenesis) of SH-SY5Y cells by RA or NGF; assay type: cell-based; conditions: SH-SY5Y culture with RA or NGF added, FIG. 13
Experimental: Human neuroblastoma (SHSY5Y) cells were maintained in Eagle's minimum essential medium (EMEM) supplemented with 10% (v/v) foetal bovine serum (FBS), 2% (v/v) glutamine and 1% (v/v) penicillin/streptomycin (10% medium), hereafter referred to as growth medium. Cells were incubated at 37° C. in a humidified atmosphere of 5% carbon dioxide.
Differentiation has been performed according to Yamada Y. et al., Neurosci Lett. 2004 Jun. 24; 364(1):11-15. Briefly, 100 ng/ml of NGF or […] of retinoic acid was added to the culture medium differentiate the SHSY5Y cells. Usually, when retinoic acid is added, the cell differentiates into cholinergic neuron-like cell as exemplified in FIG. 13. When NGF is added, the cell differentiates into dopaminergic neuron-like cells as exemplified in FIG. 13.

Molecule | Marker enzyme expression (ChAT, TH) in the presence of ligand [1] | Differentiation of SH-SY5Y cells [2]
NGF: NGF (Sigma 2.5 S #N-6009) (protein, UniProt P01139 122-241, looked up, 2.5S NGF) Beta-nerve growth factor: SSTHPVFHMGEFSVCDSVSVWVGDKTTATDIKGKEVTVLAEVNINNSVFRQYFFETKCRASNPVESGCRGIDSKHWNSYCTTTHTFVKALTTDEKQAAWRFIRIDTACVCVLSRKATRRG | dopaminergic | differentiated into doperminergia neuron-like cells
BDNF: ligand of receptor tyrosine kinase NTRK2 (protein, UniProt P23560 19-247, looked up) Neurotrophic factor BDNF …: APMKEANIRGQGGLAYPGVRTHGTLESVNGPKAGSRGLTSLADTFEHVIEELLDEDQKVRPNEENNKDADLYTSRVMLSSQVPLEPPLLFLLEEYKNYLDAANMSMRVRRHSDPARRGELSVCDSISEWVTAADKKTAVDMSGGTVTVLEKVPVSKGQLKQYFYETKCNPMGYTKEGCRGIDKRHWNSQCRTTQSYVRALTMDSKKRIGWRFIRIDTSCVCTLTIKRGR | dopaminergic | –
Ephrin B2: ligand of receptor tyrosine kinases EPHB1, EPHB2, EPHB3 (protein, UniProt P52799 28-333, looked up) Ephrin-B2: IVLEPIYWNSSNSKFLPGQGLVLYPQIGDKLDIICPKVDSKTVGQYEYYKVYMVDKDQADRCTIKKENTPLLNCAKPDQDIKFTIKFQEFSPNLWGLEFQKNKDYYIISTSNGSLEGLDNQEGGVCQTRAMKILMKVGQDASSAGSTRNKDPTRRPELEAGTNGRSSTTSPFVKPNPGSSTDGNSAGHSGNNILGSEVALFAGIASGCIIFIVIIITLVVLLLKYRRRHRKHSPQHTTTLSLSTLATPKRSGNNNGSEPSDIIIPLRTADSVFCPHYEKVSGDYGHPVYIVQEMPPQSPANIYYKV | dopaminergic | –

Further lines, with some results ahead:

Marker enzyme expression (ChAT, TH) in the presence of ligand [1] | Molecule | Differentiation of SH-SY5Y cells [2]
dopaminergic | insulin: ligand of receptor tyrosine kinase INSR [reference compound] | –
dopaminergic | Pehrin A3: ligand of receptor tyrosine kinases EPHA2 and EPHA3 (protein, UniProt P52797 23-214, looked up) Ephrin-A3: QGPGGALGNRHAVYWNSSNQHLRREGYTVQVNVNDYLDIYCPHYNSSGVGPGAGPGPGGGAEQYVLYMVSRNGYRTCNASQGFKRWECNRPHAPHSPIKFSEKFQRYSAFSLGYEFHAGHEYYYISTPTHNLHWKCLRMKVFVCCASTSHSGEKPVPTLPQFTMGPNVKINVLEDFEGENPQVPKLEKSISG | –
